US12534534 (F STAR BETA, dated 2026)

Key:
[1] = target: human CD137 on DO11.10-hCD137 cells (human, UniProt Q07011 24-255); assay: cell-based or functional assay
hCD137-mFc-Avi [2] = target: T1, hCD137-mFc-Avi (human, UniProt Q07011 24-186); assay: SPR, antigens immobilised on CM5 chip, mAb^2 at 1 µM and 1 nM, binding level at end of association
T1 construct: dimer; also called human CD137-mFc-Avi; human CD137-mFc
Protocol: CD137 belongs to the tumour necrosis factor receptor superfamily (TNFRSF) of cytokine receptors (Moran et al., 2013). To analyse the specificity of the anti-CD137 Fab binding site of the five mAb² molecules, binding of the mAb² to human CD137 and five closely-related human TNFRSF members (TNFRSF1A, TNFRSF1B, GITR, NGFR and CD40) was tested using SPR.
(§1) Flow cell 1 was run as a blank immobilisation. The five FS20-22-49AA/FS30 mAb² were diluted to 1 μM and 1 nM in 1×HBS-EP buffer (GE Healthcare, product code BR100188), allowed to flow over the chip for 3 min and then allowed to dissociate for 4 minutes. A 30-second injection of 10 mM glycine pH 1.5 was used for regeneration. […] Binding levels were determined at the end of the association phase and compared.

GITR-hFc-Avi = target: T2, GITR-hFc-Avi (human, UniProt Q9Y5U5 26-161); assay: SPR, antigen immobilised on CM5 chip
T2 construct: in-house produced; not shown: hFc and Avi part
T2 sequence: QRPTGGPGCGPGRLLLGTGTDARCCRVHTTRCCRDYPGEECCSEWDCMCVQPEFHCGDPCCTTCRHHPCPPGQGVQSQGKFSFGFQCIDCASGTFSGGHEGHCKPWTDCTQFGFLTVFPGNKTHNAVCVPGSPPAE
Protocol: as §1
(§2) Specificity was tested against the same five human TNFRSF members closely-related to CD137 (TNFRSF1A, TNFRSF1B, GITR, NGFR and CD40) plus an additional closely-related TNFRSF member, human DR6 (DR6-Fc; R&D Systems, 144-DR-100), using SPR as described in Example 3.1.

NGFR-Fc = target: T3, NGFR-Fc (human, UniProt P08138 29-250); assay: SPR, antigen immobilised on CM5 chip
T3 construct: bought; also called NGFR (R&D Systems, 367-NR-050/CF); not shown: Fc part of the bought fusion
T3 sequence (looked up): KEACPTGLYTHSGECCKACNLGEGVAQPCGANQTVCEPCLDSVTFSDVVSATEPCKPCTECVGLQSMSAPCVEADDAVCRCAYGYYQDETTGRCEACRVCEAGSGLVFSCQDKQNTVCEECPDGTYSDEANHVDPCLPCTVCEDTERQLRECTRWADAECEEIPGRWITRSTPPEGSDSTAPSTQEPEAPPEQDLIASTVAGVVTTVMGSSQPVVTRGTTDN
Protocol: as §1, §2

TNFRSF1B-Fc = target: T4, TNFRSF1B-Fc (human, UniProt P20333 23-257); assay: SPR, antigen immobilised on CM5 chip
T4 construct: bought; also called TNFRSF1B (R&D Systems, 726-R2-050); not shown: Fc part of the bought fusion
T4 sequence (looked up): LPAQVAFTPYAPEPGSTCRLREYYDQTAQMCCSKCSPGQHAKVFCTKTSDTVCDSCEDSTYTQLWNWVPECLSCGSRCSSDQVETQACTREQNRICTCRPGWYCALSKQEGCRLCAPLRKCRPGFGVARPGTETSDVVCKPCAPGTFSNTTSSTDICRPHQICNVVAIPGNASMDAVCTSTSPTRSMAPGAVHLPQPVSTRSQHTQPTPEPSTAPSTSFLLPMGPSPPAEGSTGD
Protocol: as §1, §2

TNFRSF1A-Fc = target: T5, TNFRSF1A-Fc (human, UniProt P19438 30-211, limits assumed); assay: SPR, antigen immobilised on CM5 chip
T5 construct: bought; also called TNFRSF1A (R&D Systems, 372-RI-050/CF); not shown: Fc part of the bought fusion
T5 sequence (looked up): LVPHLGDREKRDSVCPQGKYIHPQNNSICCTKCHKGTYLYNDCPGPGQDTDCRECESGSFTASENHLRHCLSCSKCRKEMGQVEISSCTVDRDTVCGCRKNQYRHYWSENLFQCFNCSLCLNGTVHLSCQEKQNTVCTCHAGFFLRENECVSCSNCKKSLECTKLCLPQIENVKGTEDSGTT
Protocol: as §1, §2

CD40-mFc = target: T6, CD40-mFc (human, UniProt P25942 21-193); assay: SPR, antigen immobilised on CM5 chip
T6 construct: in-house produced; not shown: mFc part
Protocol: as §1, §2

[3] = target: human CD137 on primary human CD8+ T cells (human, UniProt Q07011 24-255); assay: cell-based or functional assay
hCD137-mFc-Avi [4] = target: T1, hCD137-mFc-Avi; assay: ELISA, hCD137-mFc-Avi coated, 100 nM antibody, competitor CD137L-His; normalised to G1/11D4 = 0 and G1/MOR7480.1 = 100; mean of n=2
Protocol: The following day, plates were washed with PBST (PBS+0.05% Tween20™) and blocked with PBS+1% BSA (Sigma, A3059-500G) for 1 hour at room temperature with agitation. After blocking, the plates were washed again with PBST. A 100 nM dilution of each test antibody was prepared in PBS+1% BSA and added to the CD137-coated plates and incubated for 1 hour at room temperature with agitation. […] The plates were then washed with PBST and then incubated with anti-his secondary antibody (R&D Systems, MAB050H) at a 1 in 1000 dilution in PBS for 1 hour at room temperature with agitation. The plates were then washed with PBST and incubated with TMB detection reagent (Thermo Fisher Scientific, 002023) until the positive control wells turned blue and then the reaction was stopped with the addition of 2N H_2SO_4. Plates were read at 450 nm using the plate reader with Gen5 Software, BioTek. Absorbance values of 630 nm were subtracted from those of 450 nm (Correction). The subtracted absorbance values were plotted vs the log concentration of antibody and the resulting curves were fitted using the log (inhibitor) vs response equation in GraphPad Prism.

hCD137-mFc-Avi [5] = target: T1, hCD137-mFc-Avi; assay: cell-based, 100 nM hCD137-mFc-Avi with 200 nM antibody, competitor human CD137L on DO11.10 cells, GMFI normalised to G1/11D4 = 0 and G1/MOR7480.1 = 100; mean of n=2
Protocol: The cells were washed once in PBS and 100 μl/well of secondary antibody (anti-mouse Fc-488 antibody, Jackson Immuno Research, 115-546-008) diluted 1:1000 in PBS containing 2% BSA was then added and incubated for 30 mins at 4° C. in the dark. The cells were washed once with PBS and resuspended in 100 μl of PBS containing DAPI (Biotium, 40043) at 1 μg/ml. The cells were analysed using a Canto II flow cytometer (BD Bioscience). Dead cells were excluded and the fluorescence in the FITC channel (488 nm/530/30) was measured. […] The data was analysed using a one-way ANOVA test and Tukey's multiple comparisons test using GraphPad Prism.

B1: FS20-22-49AA/FS30-10 (bispecific antibody, human IgG1, kappa, L234A L235A, V domains shown)
VH: EVQLLESGGGLVQPGGSLRLSCAASGFTFSSYDMSWVRQAPGKGLEWVSDIDPTGSKTDYADSVKGRFTISRDNSKNTLYLQMNSLRAEDTAVYYCARDLMVYGFDYWGQGTLVTVSS
VL: EIVLTQSPGTLSLSPGERATLSCRASQSVSSSYLAWYQQKPGQAPRLLIYGASSRATGIPDRFSGSGSGTDFTLTISRLEPEDFAVYYCQQSYSYPVTFGQGTKVEIKR
notes: also called FS30-10 in mAb^2 format
DO11.10-hCD137 T cell activation assay EC50 (nM), crosslinked [1]: 10.2 nM
fold specificity for CD137 over TNFRSF1A, TNFRSF1B, GITR, NGFR and CD40 (hCD137-mFc-Avi [2]): ~1000 fold

B2: FS20-22-49AA/FS30-15 (bispecific antibody, human IgG1, kappa, L234A L235A, V domains shown)
VH: EVQLLESGGGLVQPGGSLRLSCAASGFTFSGSGMSWVRQAPGKGLEWVSIIYSTNGDTDYADSVKGRFTISRDNSKNTLYLQMNSLRAEDTAVYYCARDFYDIANYYAFDYWGQGTLVTVSS
VL: EIVLTQSPGTLSLSPGERATLSCRASQSVSSSYLAWYQQKPGQAPRLLIYGASSRATGIPDRFSGSGSGTDFTLTISRLEPEDFAVYYCQQAYYDPITFGQGTKVEIKR
notes: also called FS30-15 in mAb^2 format
binding result (GITR-hFc-Avi): binds
binding result (NGFR-Fc): binds
binding result (TNFRSF1B-Fc): binds
binding result (TNFRSF1A-Fc): binds
binding result (CD40-mFc): binds

B3: G1AA/FS30-6 (antibody, human IgG1, kappa, L234A L235A, V domains shown)
VH: EVQLLESGGGLVQPGGSLRLSCAASGFTVSYYSISWVRQAPGKGLEWVSDIYSYYGYTDYADSVKGRFTISRDNSKNTLYLQMNSLRAEDTAVYYCARVSYGGQAFDYWGQGTLVTVSS
VL: EIVLTQSPGTLSLSPGERATLSCRASQSVSSSYLAWYQQKPGQAPRLLIYGASSRATGIPDRFSGSGSGTDFTLTISRLEPEDFAVYYCQQYDDYPVTFGQGTKVEIKR
Activity of non-crosslinked mAbs at 100 nM (hIL-2 pg/ml) [3]: 532 pg/mL
EC50 (nM), hIL-2 release, primary human CD8+ T cell activation assay, crosslinked mAb [3]: 1 nM
Emax (hIL-2 pg/ml), crosslinked mAb [3]: 1510 pg/mL

B4: FS20-22-49AA/4420 (bispecific antibody, human IgG1, kappa, L234A L235A, V domains shown)
VH: EVKLDETGGGLVQPGRPMKLSCVASGFTFSDYWMNWVRQSPEKGLEWVAQIRNKPYNYETYYSDSVKGRFTISRDDSKSSVYLQMNNLRVEDMGIYYCTGSYYGMDYWGQGTSVTVSS
VL: DVVMTQTPLSLPVSLGDQASISCRSSQSLVHSNGNTYLRWYLQKPGQSPKVLIYKVSNRFSGVPDRFSGSGSGTDFTLKISRVEAEDLGVYFCSQSTHVPWTFGGGTKLEIKR
notes: anti-OX40 Fcab FS20-22-49AA with the Fab of anti-FITC antibody 4420; IgG1 LALA; also called negative control mAb^2
% CD137 ligand blocking activity (hCD137-mFc-Avi [4]): -0.3%
% CD137 ligand blocking activity (hCD137-mFc-Avi [5]): 2%

B5: FS20-22-49AA/FS30-5 variant, Methionine (100D) to I (bispecific antibody, V domains shown)
VH: EVQLLESGGGLVQPGGSLRLNCAASGFTFSSYAMSWVRQAPGKGLEWVSAISGSGGSTYYADSVKGRFTISRDNSKNTLYLQMNSLRAEDTAVYYCARSYDKYWGSSIYSGMDYWGQGTLVTVSS
VL: EIVLTQSPGTLSLSPGERATLSCRASQSVSSSYLAWYQQKPGQAPRLLIYGASSRATGIPDRFSGSGSGTDFTLTISRLEPEDFAVYYCQQYYSYYPVTFGQGTKVEIKR
DO11.10-hCD137 T cell activation assay EC50 (nM), crosslinked [1]: 4.4 nM

B6: FS20-22-49AA/FS30-35 (bispecific antibody, human IgG1, kappa, L234A L235A, V domains shown)
VH: EVQLLESGGGLVQPGGSLRLSCAASGFTFSAYNIHWVRQAPGKGLEWVSDISPYGGATNYADSVKGRFTISRDNSKNTLYLQMNSLRAEDTAVYYCARNLYELSAYSYGMDYWGQGTLVTVSS
VL: EIVLTQSPGTLSLSPGERATLSCRASQSVSSSYLAWYQQKPGQAPRLLIYGASSRATGIPDRFSGSGSGTDFTLTISRLEPEDFAVYYCQQYYYSSPITFGQGTKVEIKR
notes: also called FS30-35 in mAb^2 format
DO11.10-hCD137 T cell activation assay EC50 (nM), crosslinked [1]: 5.5 nM
fold specificity for CD137 over TNFRSF1A, TNFRSF1B, GITR, NGFR and CD40 (hCD137-mFc-Avi [2]): ~1000 fold

B7: FS20-22-49AA/FS30-16 (bispecific antibody, human IgG1, kappa, L234A L235A, V domains shown)
VH: EVQLLESGGGLVQPGGSLRLSCAASGFTFSNYAMHWVRQAPGKGLEWVSTIDPTDGATNYADSVKGRFTISRDNSKNTLYLQMNSLRAEDTAVYYCARSKYYTYMQYVALDYWGQGTLVTVSS
VL: EIVLTQSPGTLSLSPGERATLSCRASQSVSSSYLAWYQQKPGQAPRLLIYGASSRATGIPDRFSGSGSGTDFTLTISRLEPEDFAVYYCQQGSRFFPITFGQGTKVEIKR
notes: also called FS30-16 in mAb^2 format
fold specificity for CD137 over TNFRSF1A, TNFRSF1B, GITR, NGFR and CD40 (hCD137-mFc-Avi [2]): ~1000 fold

B8: FS20-22-49AA/FS30-5 (bispecific antibody, human IgG1, kappa, L234A L235A, V domains shown)
VH: EVQLLESGGGLVQPGGSLRLNCAASGFTFSSYAMSWVRQAPGKGLEWVSAISGSGGSTYYADSVKGRFTISRDNSKNTLYLQMNSLRAEDTAVYYCARSYDKYWGSSMYSGMDYWGQGTLVTVSS
VL: EIVLTQSPGTLSLSPGERATLSCRASQSVSSSYLAWYQQKPGQAPRLLIYGASSRATGIPDRFSGSGSGTDFTLTISRLEPEDFAVYYCQQYYSYYPVTFGQGTKVEIKR
notes: also called FS30-5 in mAb^2 format
DO11.10-hCD137 T cell activation assay EC50 (nM), crosslinked [1]: 4.8 nM
fold specificity for CD137 over TNFRSF1A, TNFRSF1B, GITR, NGFR and CD40 (hCD137-mFc-Avi [2]): ~1000 fold

B9: FS20-22-49AA/FS30-35 variant, Methionine (100F) to H (bispecific antibody, V domains shown)
VH: EVQLLESGGGLVQPGGSLRLSCAASGFTFSAYNIHWVRQAPGKGLEWVSDISPYGGATNYADSVKGRFTISRDNSKNTLYLQMNSLRAEDTAVYYCARNLYELSAYSYGHDYWGQGTLVTVSS
VL: EIVLTQSPGTLSLSPGERATLSCRASQSVSSSYLAWYQQKPGQAPRLLIYGASSRATGIPDRFSGSGSGTDFTLTISRLEPEDFAVYYCQQYYYSSPITFGQGTKVEIKR
DO11.10-hCD137 T cell activation assay EC50 (nM), crosslinked [1]: 9.5 nM
